Data as given in the nanobody polyreactivity screen of Harvey et al. (2022).

Assay: yeast display, Sf9 membrane polyspecificity reagent, FACS + sequencing; frameworks hold sequencing errors
In short: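 Galactose induction of a Saccharomyces cerevisiae BJ5465 synthetic nanobody display library ran 36–48 hours. The cells were then stained for 1 hour at 4 °C with 10% biotinylated, detergent-solubilized Sf9 membrane reagent, pulled down on streptavidin microbeads and FACS-sorted into low and high (top ~1%) gates on expression and reagent-binding fluorescence. Labels for polyreactivity follow the gate of origin.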

Row | Sequence | polyreactivity (PSR sort gate)
1 | QVQLVESGGGLLQAGGSLRLSCAASGSTFYFYARGWYRQAPGKERELVAAITGSGGSTYYAVYVKGRFTISRDNSRNSVYLQMKSVKPEDTAVYYCAAGWWYYVHMDYWGQGTQVTVSS | high polyreactivity
2 | QVQLVESGGGLLQAGGSLRLSCAASGYIFQYYAMGWYRQAPGKERELVAAITGGGSTKYADSVKGRFTISRDNAKNTVYLQMNSLKPEDTAVYYCAASLWYRISKYDYWGQGTQVTVSS | high polyreactivity
3 | QVQLVESGGGLLQAGGSLRLSCASSGRTFKANAMVWYRQAPGKERELVAAISYSGGNTYYADSVKGRFTISRDNANNTVYLQMNSLKPEDTAVYYCARYYYLPVVDMDYWGQGTQVTVSS | high polyreactivity
4 | QVQLVESGGGLLQAGGSLRLSCSATGSLFEGNGMGWYRQAPGKERELVASITRSGGSTYYADSVKGRFTISRDNAKNTVYLQINSLIPEDTAVYYCAAYPVRYYNQYDYWGLGTQVTVSS | low polyreactivity
5 | QVQLVESGGGLLQAGGSLRLSFAASGRIYWNTMGWYRQAPGKERELVASISTGGGRTYYADSVKGRFTISRDNAKNTVYLQMNSLKPEDTAVYYCNADFISTRPPKATDEDYWGQGTQVTVSS | high polyreactivity
6 | QVQLVESGGGLLQAGGSLRLSSAASGRIFYGNTMGWYRQAPGKERELVAAITWRGGSTYYADSVKGRFTISRDNAKNTVYLQMNSLKPEDTAVYYCAAVSYRGRGYWGQGTQVTVSS | high polyreactivity
7 | QVQLVESGGGLLQAGGSLRLTCAASGFTFSLNTMGWYRQAPAKEREFVAAINSGDSTYADSVKGRYTISRDNAKNTVYLQMNSLKPEDTAVYYCNADPDWWYPYNYWGQGTQVTVSS | low polyreactivity
8 | QVQLVESGGGLLQAGGSLRLTCAASGRIFGRYAMGWYRQAPGKERELVAAISYSGGSTRYADSVKGRFTISRDNSKNTVYLQMNSLKPEDTAVYYCAAARRFSTHEYWGQGTQVTVSS | high polyreactivity
9 | QVQLVESGGGLVEAGGSLRLSCAASGFIFSSYVMGWYRQAPGKERELVAAITSGNSTYYADSVKGRFTISRDNAKTTVYLQMNSLKPEDTAVSYCTADSYHTYYYWYDYWGQGTQVTVSS | low polyreactivity
10 | QVQLVESGGGLVEAGGSLRLSCAASGFTFHYYTMGWYRQAPVKERELVASINYSGGRTYYADSVKGRFTISRDIAMNTVYLQMNSLKPEDTAVYYCNARYKSTYYYWGQGTQVTVSS | high polyreactivity
11 | QVQLVESGGGLVEAGGSLRLSCAASGRIFLSYAMGWYRQAPGKERELVATITDRGGRTYYADSVKGRFTISRDNAKNTVYLQMNSLKAEDTAVDYCAAGLVYRGYRRDYWGQGTQVTVTS | low polyreactivity
12 | QVQLVESGGGLVEAGGSLRLSCAAYGRTFDYYDMGWYRPAPGKERELVAGITVSSGGTNYADSVKGRFTISRDNAKNTVYLQMNSLNPEDTAVYYCADANYDFYAFDSTYRYNYWGQGTQVTVSS | low polyreactivity
13 | QVQLVESGGGLVEAGGSLRLSGAASGRSFGIYAMGWYRQAPGKERELVAAITWSGDSTYYADSVKGRFTISRDNAKKTVYLQMNILKPEDTAVYYCAADDVGVTSVRYDYWGQGTLVTVSS | low polyreactivity
14 | QVQLVESGGGLVEAGGSLRLTCAAYGSIFSAYAMGWYRAAPGKERELVAAITRGTSTNYADSVKGRFTISRDNAKNTVYLQMNSLKPEDTAVYYCAVGYNSKLAVGMYYWGLGTQVTVSS | low polyreactivity
15 | QVQLVESGGGLVEAGVSLRISCAASGRIFAYNTMGWYRQAPGKERELVAAISWRGGSTYYADSVKGRFTISRDNEKNSVHLQRNSLKPEDTAVYYCAVLSSSLTRFDYWGQGSQVTVSS | high polyreactivity
16 | QVQLVESGGGLVEEGGSLRLSCAASGSIFSANALGWYRQAPGKERELVACITGDGSTNYADSVKGRFTISRDNAKNTVYLQMNSLKPEDTAVYYCAADIGSWYDYWGQGTQVTVSS | low polyreactivity
17 | QVQLVESGGGLVHAAGSLRLSCAASGRTFRYNTMGWYRQASGKESELVARITRSGGSTYYADSVKGRFTISRDNAKNTVYLQMNSLKPEDTAVYYCAAVPILVYRWFQYYTGDYDYWGQGTQVTVSS | low polyreactivity
18 | QVQLVESGGGLVHAGCSLRLSCSASGRISGYAMGWYRQAPGKERELVAAISKSAARTYYADSVKGRFTISRDNAKNTVYLQMNSLKAEDTAVYYCAADKPYRYDYWGQGTQVTVSS | high polyreactivity
19 | QVQLVESGGGLVHAGGILSLSSAASGFTIGYYSMGWYRQAPGKERELVAAINWSGGRTYYGDSVKGRFTISRDIAKNTVYFQMTSLKPEDTAVYYCAADPNKGRQMYYWGQGSQVTVSS | high polyreactivity
20 | QVQLVESGGGLVHAGGRLRLSCAASGRIFYTYTMGWYSQAPGKERELVATITDGTRTNYADSVKGRFTISRDNAKITVYLQMTSLQPEDTAVYYCNAAGRWHDLYRINYDYWGQGTKVTVSS | low polyreactivity
21 | QVQLVESGGGLVHAGGRLRLSCAASGRISGYAMAWYRQAPRTERELVAAISTRGGTTYYADSVKGRFTISRDNAKNTVYLQMNSLKPEDTAVYFCNAASSRWPEYDFWGQGTQVTVSS | high polyreactivity
22 | QVQLVESGGGLVHAGGSHRLSCAASGFSFKSYAMGWYRQAPGKERELVAAISRRCGSTNYADSVKGRFTISRDNAKNTVYLQMNSLKPEDTAVYYCNADPYNSPYQVSGPYKEDYDYWGQGTQVTVSS | high polyreactivity

Row | Sequence | polyreactivity (PSR sort gate)
23 | QVQLVESGGGLVHAGGSLGLSCAASGSIFYEYVMGWYRQAPGKERELVATIDLNGGSTTYADSVKGRFTISRDNAKNTDYLQMNSLKPEDTAVYYCAAQTGFVSHFFWHYDYWGQGSQVTVSS | low polyreactivity
24 | QVQLVESGGGLVHAGGSLRLSCAASGFIFNFYAMGWYRQAPGKERELVAAISRTGGSTYYADSVKGRFTISRDNAKNTVYLQMNSLKPEDTAVYYCNAGCGFRSYGYDPWGQGTQVTVSS | high polyreactivity
25 | QVQLVESGGGLVHAGGSLRLSCAASGFILTGYTMGWYRQAPGKEMELVAAISYRGGSTYYADSVKGRFTISRDNAKNTVYLQMNSLKPEDTAVYYCNAVWSNFRLGYDYWGQGTQVTVSS | high polyreactivity
26 | QVQLVESGGGLVHAGGSLRLSCAASGFTFEYNAMGWYRQAPGKERELVAVITYRGGSTYYADSVKGRFTISRDNAKHTVYLQMNSLKPEDTAVYYCAADSVTYGGDYWGQGTQVTVSS | high polyreactivity
27 | QVQLVESGGGLVHAGGSLRLSCAASGFTFRGYAMGWYRPSPGKEREFVAAISRSGGSTNYADSVKGRFTISRDNAKNTVYLQMNSLKPEDTAVYYCAAGWNPYDYWGQGTQVTVSS | high polyreactivity
28 | QVQLVESGGGLVHAGGSLRLSCAASGFTFRYGMGWYRQAPRKERELVAAISNTGGSTYYADSVKGRFTISRDNAKNTVYLKMNSLKPEDTSVYYCAAAGGLWWVFYALDYWGQGTQVSVSS | low polyreactivity
29 | QVQLVESGGGLVHAGGSLRLSCAASGFTFYYYAMGWYRPAPGKERELVAAISSRGGNSYYADSVKGRFTISRDNAKNTVYLQMNSLKPEDTAVYYCASVPLKYDYWGQGTQVTVSS | high polyreactivity
30 | QVQLVESGGGLVHAGGSLRLSCAASGFTIRSYVMGWYRQAPGKERELVAAIRRSGGSTYYADSVKGRFTISRDNAKNTVYLQMNCLKPEDTAVYYCNADIRAYTVLTGGYIYDYWGQGTQVTVSS | high polyreactivity
31 | QVQLVESGGGLVHAGGSLRLSCAASGGTFSLNAMGWYRKAPGTERELVAAISKRSSTTYYADSVKGRFTISRDNAKNTVYLQMNSLKPEDTSVYYCAARVLRSRKPGRGYDYWGQGTQVTVSS | high polyreactivity
32 | QVQLVESGGGLVHAGGSLRLSCAASGILFGYYAIGWYRQAPGKERELVAAITSGSSTDYADSVKGRFTISRDNAKNTFYLQMNSLKPEDTAVYYCNAVTSASTYTFPFDYWGQGTQVTVSS | low polyreactivity
33 | QVQLVESGGGLVHAGGSLRLSCAASGITFEGNAMGWNRQAPGTERELVAAIRSSGTSTYYADSVKGRFTFSRDNEKKTVYLQMNSLKPEDTAVYYCNRARSSSRYDYWGEGTQVTVSS | low polyreactivity
34 | QVQLVESGGGLVHAGGSLRLSCAASGITFVYYAMGWYRQAPGKERELVAAIDDTGTTYYADSVKGRFTISRDNAKNTVYLQMNSLKPEDTAVYYCAADDWGWFFGGGDYWGQGTQVTVSS | high polyreactivity
35 | QVQLVESGGGLVHAGGSLRLSCAASGKIFGLYAMGWYRKAPGKERELVAAISYRTDSTYADSVKGRFTISRDNAKNTVYLQMNSLKPEDTAVYYCAADLRVSVRYYYWGQGTQVTVSS | low polyreactivity
36 | QVQLVESGGGLVHAGGSLRLSCAASGLTFGAYAMGWYRQAPGEERELVATITNSGRTYYADSVKGRFTISRDNAKNTVYLQMNSLKPEDTAVYYCAAQPDGQAMDHWGQGTQVTVSS | low polyreactivity
37 | QVQLVESGGGLVHAGGSLRLSCAASGLTFVDNAMGWYRQAPGKERELVAAITKRGGRTYYADSVKGRFTISRDNAKNTVYSQMNSLKPEDTAVYYCAREAGNDSSRRLDYWGQGTQVTVSS | low polyreactivity
38 | QVQLVESGGGLVHAGGSLRLSCAASGRLFYPYAMGWYRQAPGKERELVAAITYITGSTYADSVKGRFTISRDNAKNTVYLQMNSLKPEDTAVYYCAADYESGDYWGQGTQVTVSS | low polyreactivity
39 | QVQLVESGGGLVHAGGSLRLSCAASGRTFATNTIGWYRQAPGKERELVAAITFSGGSTYYADSVKGRFTISRDTAKIPRYLQMNCLKPEDNEVYYCNVRSPYYSYRYRYGYWGQGSQVTVSS | high polyreactivity
40 | QVQLVESGGGLVHAGGSLRLSCAASGRTFATYAMGWYRQAPGKERELVAAITSGGSTYYADSVKGRFTISRDNAKNTVYLQMNSLKPEDTAVYYCAADLSTYRRGFDYWGQGTHVTVSS | high polyreactivity
41 | QVQLVESGGGLVHAGGSLRLSCAASGRTFGIYTMGWYRQAPGKERELVASTYYADSVKGRFTISRDNAKNTVYLQMNSLKPEDTAVYYCNVERLKKSQVWYGYPNDYWGQGTQVTVSS | low polyreactivity
42 | QVQLVESGGGLVHAGGSLRLSCAASGRTFWAYAMGWYRQAPGKERELVAAISASRGSTYYADSVKGRFTISRDTAKNTVYLEMNSLTAEDTAVYYCRLVSNGRLYDYWGQGTQATVSS | low polyreactivity
43 | QVQLVESGGGLVHAGGSLRLSCAASGRTFYPNVMGWYRQAPGKERELVAAIRARGGSTYYADSVKGRFTISRDNAKNTVYLQMNSLKPEDTAVYYCARDTGDYLQFDYWGQGTQVTVSS | high polyreactivity
